Source: the RNAGym collection of RNA variant scans (doi:10.1093/nar/gkz1192)

B1: CPEB3 Ribozyme (parent)
chain: UAACAGGGGGCCACAGCAGAAGCGUUCACGUCGCAGCCCCUGUCAGAUUCUGGUGAAUCUGCGAAUUCUGCUGUAUAUCUC

Variants of: B1
Experiment: self-cleavage, relative activity (ratio to wild type); higher = more cleavage; in vitro, sequencing
Outline: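 For each CPEB3 ribozyme variant, relative activity is its cleaved/total read fraction divided by the unmutated ribozyme's. Barcoded error-prone PCR libraries were transcribed by T7 RNA polymerase (5 hours, 37°C) and held in DNase I for 15 min before an EDTA stop, with cleavage occurring throughout. Template-switching reverse transcription and Illumina sequencing were used to read the RNAs. A 5-read minimum applied, and results are the mean of three batches.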
With A15G C29G the self-cleavage was 0.16.
In the case of A15G C29U, the self-cleavage is reported as 0.41.
Variant A15C A47U has a self-cleavage of 0.17.
Work on A15C A47G yielded a self-cleavage of 0.85.
With C14U U41A the self-cleavage was 0.24.
C14U U41C showed a self-cleavage of 1.2.
Variant C14A A45U has a self-cleavage of 0.77.
Variant C14A A45G has a self-cleavage of 1.15.
Variant A13U U80G has a self-cleavage of 1.27.
In the case of A13U U80C, the self-cleavage is reported as 1.18.
A13U U80A gave a self-cleavage of 1.25.
Variant C14U A77G has a self-cleavage of 1.34.
Work on C14U A77C yielded a self-cleavage of 0.53.
C14G A35G gave a self-cleavage of 1.24.
C14A U54G gave a self-cleavage of 1.21.
For C14A U54A, the self-cleavage was 1.19.
Variant C14U A35U has a self-cleavage of 1.04.
C14U A35C gave a self-cleavage of 1.11.
Variant C14U A35G has a self-cleavage of 1.38.
With C14A G24C the self-cleavage was 0.15.
Variant A15C A28U has a self-cleavage of 0.8.
A15C A64G showed a self-cleavage of 0.62.
With C14A A21U the self-cleavage was 0.34.
For C14A U25C, the self-cleavage was 0.21.
A15G A18G showed a self-cleavage of 0.5.
For A15G A18U, the self-cleavage was 0.26.
For A15G A18C, the self-cleavage was 0.37.
With C14G U48C the self-cleavage was 0.47.
For C14U G63A, the self-cleavage was 1.26.
With A13U U74C the self-cleavage was 1.28.
With A13U U74A the self-cleavage was 1.23.
In the case of A15C U80A, the self-cleavage is reported as 1.22.
A15C U41A showed a self-cleavage of 0.22.
In the case of A15C U41G, the self-cleavage is reported as 0.15.
A15C U41C gave a self-cleavage of 1.13.
C14A U66C showed a self-cleavage of 0.4.
C14U A57C gave a self-cleavage of 0.66.
Work on C14U A57G yielded a self-cleavage of 1.1.
Work on A15C A57G yielded a self-cleavage of 0.43.
For A15C A57U, the self-cleavage was 0.54.
C14U C38A showed a self-cleavage of 0.14.
A13U G63A showed a self-cleavage of 1.05.
Work on A13U G63U yielded a self-cleavage of 1.09.
Variant C14G A56G has a self-cleavage of 1.
Work on A15G C17A yielded a self-cleavage of 0.34.
A15G C17U gave a self-cleavage of 0.48.
A15G A20U gave a self-cleavage of 0.24.
A15G A20G gave a self-cleavage of 0.47.
Variant A15G A20C has a self-cleavage of 0.18.
With A13U G42A the self-cleavage was 0.19.
With A13U G42U the self-cleavage was 0.12.
In the case of A13U G36A, the self-cleavage is reported as 0.33.
Variant A15C C29U has a self-cleavage of 0.22.
A15C U66G showed a self-cleavage of 0.45.
With A15C U66C the self-cleavage was 0.29.
Variant A15G A35G has a self-cleavage of 0.68.
A15G A35U gave a self-cleavage of 0.53.
A15G A35C gave a self-cleavage of 0.45.
A13U U25A gave a self-cleavage of 0.26.
A13U U25C showed a self-cleavage of 0.28.
In the case of A15C G33C, the self-cleavage is reported as 0.16.
Work on C14A A15G yielded a self-cleavage of 1.1.
A15C U60C gave a self-cleavage of 0.28.
C14A U49C showed a self-cleavage of 0.23.
A15C U48C gave a self-cleavage of 0.47.
A13U U58A gave a self-cleavage of 0.44.
A13U U58C showed a self-cleavage of 0.72.
With A13U U58G the self-cleavage was 0.3.
Variant C14U A18U has a self-cleavage of 0.44.
Work on C14U A18G yielded a self-cleavage of 0.82.
C14U C79A gave a self-cleavage of 1.29.
With C14U U26A the self-cleavage was 0.93.
For C14U U26C, the self-cleavage was 0.66.
For C14A G73U, the self-cleavage was 1.26.
With A15C C59U the self-cleavage was 0.85.
For A13U G73C, the self-cleavage was 1.26.
In the case of A13U G73U, the self-cleavage is reported as 1.24.
With A13U G73A the self-cleavage was 1.23.
For C14U U67C, the self-cleavage was 0.23.
Work on C14U U67A yielded a self-cleavage of 0.42.
A13U U43G gave a self-cleavage of 0.26.
With A13U U43A the self-cleavage was 1.09.
For A13U U43C, the self-cleavage was 0.93.
With C14A A18U the self-cleavage was 0.49.
